# Data reported in publication doi:10.1101/2025.11.05.686826.
# Target: Prometheoarchaeum syntrophicum rubisco (Prometheoarchaeum syntrophicum)
# Test: SEC-SAXS
substance,measurement,value
Prometheoarchaeum syntrophicum rubisco (enzyme),stoichiometry N,2
